From PMC12102759

B1: NYNRIN peptide 1030-1045 (Protein NYNRIN), 16-mer library wild type / NSP3 UBl1 (ORF1ab Nsp3a Ub1, residues 819-925) (parent)
chain 1: EAPSLSEEILRALSLH
chain 2: APTKVTFGDDTVIEVQGYKSVNITFELDERIDKVLNEKCSAYTVELGTEVNEFACVVADAVIKTLQPVSELLTPLGIDLDEWSMATYYLFDESGEFKLASHMYCSFY
B2: TET3 peptide 458-473 (Methylcytosine dioxygenase TET3), 16-mer library wild type / NSP3 SUD-M (ORF1ab Nsp3c SUD-M, residues 1356-1493) (parent)
chain 1: DPMAELEQLLGSASDY
chain 2: LPSIISNEKQEILGTVSWNLREMLAHAEETRKLMPVCVETKAIVSTIQRKYKGIKIQEGVVDYGARFYFYTSKTTVASLINTLNDLNETLVTMPLGYVTHGLNLEEAARYMRSLKVPATVSVSSPDAVTAYNGYLTSS
B3: NCOA2 peptide 1073-1088 (Nuclear receptor coactivator 2), 16-mer library wild type / NSP3 UBl1 (ORF1ab Nsp3a Ub1, residues 819-925) (parent)
chain 1: PSDEGALLDQLYLALR
chain 2: B1 chain 2

Variants of: B1
Conditions: with NSP3 UBl1 (ORF1ab Nsp3a Ub1, residues 819-925); bait immobilised on MaxiSorp plates (10 µg), library pre-cleared on GST, 2 h binding at 4 °C, five washes; one round per day, days 1-4; value from days 2 and 3; keep out of graded; scale: average fractional NGS count over selection days 2 and 3

| Variant | screen value |
| --- | --- |
| chain 1 EAPSGSEEILRALSLH | 0 |
| chain 1 EAPSNSEEILRALSLH | 0 |
| chain 1 EAPSHSEEILRALSLH | 0 |
| chain 1 ESPSLSEEILRALSLH | 0 |
| chain 1 EAPSLSEEALRALSLH | 0 |
| chain 1 EAPSLSEEELRALSLH | 0 |
| chain 1 EAPSLSEEILRALSWH | 0 |
| chain 1 EAPSLSEEIDRALSLH | 0 |
| chain 1 EAPSLSEEILRAFSLH | 0 |
| chain 1 EAPSLSEEILRAMSLH | 0 |
| chain 1 EAPSLSEEILRAVSLH | 0 |
| chain 1 EAPSLSEEILRARSLH | 0 |
| chain 1 EAPSLSEEILRAHSLH | 0 |
| chain 1 EAPVLSEEILRALSLH | 0 |
| chain 1 EAPMLSEEILRALSLH | 0 |

Variants of: B2
Conditions: with NSP3 SUD-M (ORF1ab Nsp3c SUD-M, residues 1356-1493); bait immobilised on MaxiSorp plates (10 µg), library pre-cleared on GST, 2 h binding at 4 °C, five washes; one round per day, days 1-4; value from days 2 and 3; keep out of graded; scale: average fractional NGS count over selection days 2 and 3

| Variant | screen value |
| --- | --- |
| chain 1 DPMAELEQLLGSASDA | 0 |
| chain 1 DPMAELEQLLGSASDH | 0 |
| chain 1 DPMAELEQLLGSAIDY | 0 |
| chain 1 DPMAELEQLLGSAFDY | 0 |
| chain 1 DPMAELEQLLGSAWDY | 0 |
| chain 1 DPMAELEQLLGQASDY | 0 |
| chain 1 DPMAELEQLLGRASDY | 0 |
| chain 1 DPMAELEQLLGKASDY | 0 |
| chain 1 DPMAELEQLLGIASDY | 0 |

Variants of: B3
Conditions: with NSP3 UBl1 (ORF1ab Nsp3a Ub1, residues 819-925); bait immobilised on MaxiSorp plates (10 µg), library pre-cleared on GST, 2 h binding at 4 °C, five washes; one round per day, days 1-4; value from days 2 and 3; keep out of graded; scale: average fractional NGS count over selection days 2 and 3

| Variant | screen value |
| --- | --- |
| chain 1 PSDEGALLDQLSLALR | 0 |
| chain 1 PSDEGALLDQLFLALR | 0.000754 |
| chain 1 PSDEGALLDQLVLALR | 0 |
| chain 1 PSDEGALLDQLALALR | 0 |
| chain 1 PSDEGATLDQLYLALR | 0 |
| chain 1 PSDEGASLDQLYLALR | 0 |
| chain 1 PSDEGAQLDQLYLALR | 0 |
| chain 1 PSDEGALLPQLYLALR | 0.000642 |
| chain 1 PSDEGALLSQLYLALR | 1.09e-05 |
| chain 1 PSDEGALLTQLYLALR | 7.34e-06 |
| chain 1 PSDEGALLEQLYLALR | 2.36e-05 |
| chain 1 PSDEGALLDALYLALR | 0 |
| chain 1 PSDEGALLDLLYLALR | 0 |
| chain 1 PSDEGALLDWLYLALR | 0 |
| chain 1 PSDEGALLDMLYLALR | 3.19e-06 |
| chain 1 PSDEGALLDQLYLANR | 0 |
| chain 1 PSDEGALLDQLYLAIR | 7.04e-06 |
| chain 1 PSDEGALLDQLYLALI | 1.03e-05 |
| chain 1 PSDEGALLDQLYLALS | 4.51e-05 |
| chain 1 PSDEGALLDQLYLALY | 0.0506 |
| chain 1 PSDEGALLDQLYLALF | 0.000746 |
| chain 1 PSDEGALLDQLYLALT | 0.000892 |
| chain 1 PSDEGALLDQLYLALM | 7.36e-05 |
